Assay results as given in US20250263489A1 (TEIJIN PHARMA, published 2025).
Substitutions are numbered along the chain they refer to.

B1: human chimeric IGF11-16 antibody (antibody, V domains shown)
VH: QIQLQQPGAELVKPGASVKLSCKAPGYTFTSYWMHWVKQRPGQGLEWIGETNPSNSVTNYNEKFKSKATLTVDKSSSTAYMQLSSLTSEDSAVYYCTIGRGRGFAYWGQGTLVTVSA
VL: DIQMNQSPSSLSASLGDTITITCRASQNINFWLSWCQQKPGNIPKLLIYKASNLHTGVPSRFSGSGSGTDFTLTISSLQPEDIATYYCLQGQSYPYTFGGGTKLEIK
notes: also called Chimera; human mouse chimeric antibody IGF11-16
B2: humanized antibody hIGF13_PS (antibody, V domains shown)
VH: QVQLVQSGAEVKKPGASVKVSCKAPGYTFTSYWMHWVRQAPGQGLEWMGETNPSSSVTNYAQKFQGRVTLTVDTSTSTAYMELSSLRSEDTATYYCTIGRGRGFAYWGQGTLVTVSS
VL: B1 VL with N5T, L15V, T18R, I19V, C36Y, N42K, I43V, I83V
notes: also called VL23/VH13_PS
B3: humanized antibody hIGF25_PS (antibody, V domains shown)
VH: B2 VH with T93V
VL: B1 VL with N5T, L15V, T18R, I19V, C36Y, N42K, I43V, I83V
notes: also called VL23/VH25_PS

Legend:
[1] = target: IGF-1 receptor on the cells of the PathHunter IGF1R Functional Assay (DiscoverX) (UniProt P08069 31-1367); assay: cell-based or functional assay
[2] = target: T1, guinea pig IGF-1 receptor expressed on HEK293T cells (guinea pig, UniProt P08069 31-1367 (human entry)); assay: cell-based ELISA on fixed HEK293T cells expressing the IGF-1R, antibody at 5 nM, anti-human IgG HRP, absorbance 450 nm minus 650 nm
T1 sequence (P08069 other isoform, or with tags, fused parts or gaps limits assumed): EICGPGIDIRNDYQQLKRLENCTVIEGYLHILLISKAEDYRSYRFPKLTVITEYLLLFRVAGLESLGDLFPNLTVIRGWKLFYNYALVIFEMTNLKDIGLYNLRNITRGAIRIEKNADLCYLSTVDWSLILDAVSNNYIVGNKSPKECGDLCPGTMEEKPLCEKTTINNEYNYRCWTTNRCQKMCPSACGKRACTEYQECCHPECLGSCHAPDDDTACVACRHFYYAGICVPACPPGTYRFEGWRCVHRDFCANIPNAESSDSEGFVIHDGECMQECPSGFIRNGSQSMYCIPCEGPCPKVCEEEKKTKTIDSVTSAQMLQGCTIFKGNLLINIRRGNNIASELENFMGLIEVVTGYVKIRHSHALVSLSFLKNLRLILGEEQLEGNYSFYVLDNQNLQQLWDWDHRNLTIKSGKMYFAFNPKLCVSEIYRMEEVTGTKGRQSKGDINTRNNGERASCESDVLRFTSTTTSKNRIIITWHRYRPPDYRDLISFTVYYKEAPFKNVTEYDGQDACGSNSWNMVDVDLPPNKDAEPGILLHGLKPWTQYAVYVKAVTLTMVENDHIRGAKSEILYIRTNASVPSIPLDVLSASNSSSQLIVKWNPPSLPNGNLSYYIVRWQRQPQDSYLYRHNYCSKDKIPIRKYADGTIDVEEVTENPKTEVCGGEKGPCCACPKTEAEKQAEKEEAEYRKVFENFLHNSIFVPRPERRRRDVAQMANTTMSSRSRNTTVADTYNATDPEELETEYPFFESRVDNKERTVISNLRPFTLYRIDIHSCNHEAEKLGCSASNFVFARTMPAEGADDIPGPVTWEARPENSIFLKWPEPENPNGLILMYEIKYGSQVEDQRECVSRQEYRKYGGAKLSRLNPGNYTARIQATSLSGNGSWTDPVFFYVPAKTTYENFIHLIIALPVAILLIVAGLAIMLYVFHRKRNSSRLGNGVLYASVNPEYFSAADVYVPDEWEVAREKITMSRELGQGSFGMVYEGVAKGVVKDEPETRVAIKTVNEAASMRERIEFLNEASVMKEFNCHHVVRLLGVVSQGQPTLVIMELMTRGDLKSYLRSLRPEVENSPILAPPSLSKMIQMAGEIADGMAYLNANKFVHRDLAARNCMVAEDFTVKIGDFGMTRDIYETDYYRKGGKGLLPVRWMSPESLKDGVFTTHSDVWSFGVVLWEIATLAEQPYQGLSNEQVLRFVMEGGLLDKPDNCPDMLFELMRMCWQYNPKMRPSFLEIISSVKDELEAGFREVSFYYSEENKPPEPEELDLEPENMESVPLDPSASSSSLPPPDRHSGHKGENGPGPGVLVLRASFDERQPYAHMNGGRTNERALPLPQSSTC
Protocol: (§1) HEK293T cells were transfected by lipofection method with pEF1 expression vectors (Thermo Fisher) incorporated with the IGF-1 receptor genes of rabbit (SEQ ID NO: 76), guinea pig (SEQ ID NO: 78), rat (SEQ ID NO: 80) and mouse SEQ ID NO: 82). The transfected HEK293T cells were allowed to grow overnight or longer after the lipofection, and were then added to a 96-well plate (poly-D-lysine coated) at 4×10⁴ cells/well. The cells were then fixed in 10% buffered formalin (Mildform® 10NM, Wako) and blocked with phosphate buffer containing 3% BSA before used for ELISA.
(§2) ELISA was carried out as follows. 100 μL of each humanized antibody solution prepared at 5 nM in 1% BSA/1% FBS/PBS was added to each well, and reacted at 37° C. for about 1 hour. Anti-human IgG antibody HRP conjugate solution prepared at each concentration in 1% BSA/1% FBS/PBS was added to each well at 100 μL, reacted at 37° C. for about 1 hour, and washed three times with washing solution. […] After about 30 minutes, 100 μL of 1M sulfuric acid was added to each well, the absorbances at 450 and 650 nm were measured, and the difference between the absorbances at 450 nm and at 650 nm was calculated. The calculated difference was compared with the difference between the absorbances at 450 nm and at 650 nm for HEK293T cells without IGF-1 receptor gene (Mock) to analyze the binding activity.

[3] = target: T2, rabbit IGF-1 receptor expressed on HEK293T cells (rabbit); assay: as above
T2 sequence (chain, as listed by the source limits assumed): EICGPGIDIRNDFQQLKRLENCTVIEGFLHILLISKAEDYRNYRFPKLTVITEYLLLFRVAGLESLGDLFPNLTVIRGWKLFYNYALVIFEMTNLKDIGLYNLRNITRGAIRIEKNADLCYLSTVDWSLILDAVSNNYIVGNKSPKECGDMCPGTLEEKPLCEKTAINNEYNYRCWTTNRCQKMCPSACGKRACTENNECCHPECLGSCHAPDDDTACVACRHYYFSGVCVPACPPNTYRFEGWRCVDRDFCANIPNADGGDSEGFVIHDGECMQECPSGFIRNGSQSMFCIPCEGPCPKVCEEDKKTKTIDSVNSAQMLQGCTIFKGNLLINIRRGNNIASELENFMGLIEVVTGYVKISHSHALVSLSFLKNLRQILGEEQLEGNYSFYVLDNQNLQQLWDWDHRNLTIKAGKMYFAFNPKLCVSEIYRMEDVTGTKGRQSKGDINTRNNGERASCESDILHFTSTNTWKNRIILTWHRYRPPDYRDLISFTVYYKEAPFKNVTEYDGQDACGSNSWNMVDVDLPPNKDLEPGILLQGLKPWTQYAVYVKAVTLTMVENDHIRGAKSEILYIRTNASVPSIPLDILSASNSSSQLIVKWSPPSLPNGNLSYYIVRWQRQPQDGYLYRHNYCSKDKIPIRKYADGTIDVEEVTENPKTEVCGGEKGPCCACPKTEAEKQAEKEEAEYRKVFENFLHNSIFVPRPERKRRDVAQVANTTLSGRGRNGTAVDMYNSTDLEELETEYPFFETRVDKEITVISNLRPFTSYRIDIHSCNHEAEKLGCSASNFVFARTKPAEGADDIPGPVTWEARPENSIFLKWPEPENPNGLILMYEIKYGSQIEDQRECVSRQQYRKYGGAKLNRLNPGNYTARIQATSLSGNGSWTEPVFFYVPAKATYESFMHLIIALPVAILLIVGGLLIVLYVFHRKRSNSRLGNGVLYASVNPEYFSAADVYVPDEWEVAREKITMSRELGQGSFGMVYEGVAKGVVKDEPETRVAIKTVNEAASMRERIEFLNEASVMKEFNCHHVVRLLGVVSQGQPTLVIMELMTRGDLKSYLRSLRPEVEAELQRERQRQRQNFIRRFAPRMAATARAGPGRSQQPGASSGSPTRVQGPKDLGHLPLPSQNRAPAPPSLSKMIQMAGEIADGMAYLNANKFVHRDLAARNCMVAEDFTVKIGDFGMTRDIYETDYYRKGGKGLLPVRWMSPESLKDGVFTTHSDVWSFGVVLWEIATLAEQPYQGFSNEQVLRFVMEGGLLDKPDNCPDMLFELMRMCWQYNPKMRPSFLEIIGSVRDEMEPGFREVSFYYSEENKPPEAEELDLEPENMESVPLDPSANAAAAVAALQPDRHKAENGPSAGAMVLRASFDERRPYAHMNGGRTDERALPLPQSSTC
Protocol: as §1, §2

[4] = target: rat IGF-1 receptor expressed on HEK293T cells (rat, UniProt P24062 31-1370); assay: cell-based ELISA on fixed HEK293T cells expressing the receptor, compared with Mock cells
Sequence of rat IGF-1 receptor expressed on HEK293T cells (P24062 other isoform, or with tags, fused parts or gaps limits assumed): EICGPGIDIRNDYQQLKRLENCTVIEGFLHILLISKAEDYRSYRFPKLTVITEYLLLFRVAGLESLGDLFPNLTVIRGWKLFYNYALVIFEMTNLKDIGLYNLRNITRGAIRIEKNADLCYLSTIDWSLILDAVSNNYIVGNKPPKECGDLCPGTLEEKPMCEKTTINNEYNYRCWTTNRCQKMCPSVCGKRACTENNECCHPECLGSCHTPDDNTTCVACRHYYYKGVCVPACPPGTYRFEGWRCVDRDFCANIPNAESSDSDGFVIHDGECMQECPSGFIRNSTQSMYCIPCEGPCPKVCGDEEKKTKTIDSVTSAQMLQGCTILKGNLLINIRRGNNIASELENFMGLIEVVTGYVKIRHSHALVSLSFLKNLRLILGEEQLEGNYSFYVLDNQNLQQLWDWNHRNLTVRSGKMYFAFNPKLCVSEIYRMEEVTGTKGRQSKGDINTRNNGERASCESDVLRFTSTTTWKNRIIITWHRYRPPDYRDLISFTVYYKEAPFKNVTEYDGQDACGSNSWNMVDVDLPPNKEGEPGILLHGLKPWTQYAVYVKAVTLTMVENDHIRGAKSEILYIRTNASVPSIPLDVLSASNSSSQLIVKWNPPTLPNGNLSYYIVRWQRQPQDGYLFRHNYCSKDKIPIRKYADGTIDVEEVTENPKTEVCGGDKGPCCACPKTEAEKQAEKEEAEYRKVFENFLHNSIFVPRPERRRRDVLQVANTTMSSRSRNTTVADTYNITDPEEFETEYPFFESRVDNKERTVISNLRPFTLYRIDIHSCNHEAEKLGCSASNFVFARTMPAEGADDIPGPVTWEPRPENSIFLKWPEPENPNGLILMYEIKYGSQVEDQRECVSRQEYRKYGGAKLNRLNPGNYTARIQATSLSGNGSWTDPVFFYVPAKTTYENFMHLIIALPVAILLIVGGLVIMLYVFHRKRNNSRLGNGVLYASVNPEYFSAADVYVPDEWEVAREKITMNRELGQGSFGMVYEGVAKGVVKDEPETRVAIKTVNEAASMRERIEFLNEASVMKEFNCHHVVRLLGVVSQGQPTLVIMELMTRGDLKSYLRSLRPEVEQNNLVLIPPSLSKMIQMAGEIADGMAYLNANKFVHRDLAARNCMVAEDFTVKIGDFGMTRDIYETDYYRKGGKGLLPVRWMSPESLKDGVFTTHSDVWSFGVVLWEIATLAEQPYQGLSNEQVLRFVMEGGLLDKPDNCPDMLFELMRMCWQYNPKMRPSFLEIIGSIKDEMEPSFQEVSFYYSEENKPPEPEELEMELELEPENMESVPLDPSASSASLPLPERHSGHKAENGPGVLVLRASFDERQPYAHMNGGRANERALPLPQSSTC
Protocol: as §1
(§3) ELISA was carried out as follows. 100 μL of each humanized antibody solution prepared at 5 nM in 1% BSA/1% FBS/PBS was added to each well, and reacted at 37° C. for about 1 hour. Anti-human IgG antibody HRP conjugate solution prepared at each concentration in 1% BSA/1% FBS/PBS was added to each well at 100 μL, reacted at 37° C. for about 1 hour, and washed three times with washing solution. The reaction was initiated by adding 100 μL of substrate (TMB) to each well. After about 30 minutes, 100 μL of 1M sulfuric acid was added to each well, the absorbances at 450 and 650 nm were measured, and the difference between the absorbances at 450 nm and at 650 nm was calculated. The calculated difference was compared with the difference between the absorbances at 450 nm and at 650 nm for HEK293T cells without IGF-1 receptor gene (Mock) to analyze the binding activity.

[5] = target: mouse IGF-1 receptor expressed on HEK293T cells (mouse, UniProt Q60751 31-1373); assay: as above
Protocol: as §1, §3

[6] = target: T3, human IGF-1 receptor expressed on HEK293T cells (human, UniProt P08069 31-1367); assay: cell-based ELISA on fixed HEK293T cells expressing the receptor, antibody at 5 nM
T3 construct: Cells fixed in formalin before the ELISA; also called human IGF-1 receptor-expressing cells

[7] = target: T1, guinea pig IGF-1 receptor expressed on …; assay: as above
[8] = target: crab-eating macaque IGF-1 receptor expressed on HEK293T cells (crab-eating macaque); assay: as above
[9] = target: T2, rabbit IGF-1 receptor expressed on …; assay: as above

Signal intensity (ratio to IGF11-16) at 16.7 nM, PathHunter [1]	binding result [2]	binding result [3]	binding result [4]	binding result [5]	binding activity, fold compared to Mock cells [6]	binding activity, fold compared to Mock cells [7]	binding activity, fold compared to Mock cells [8]	binding activity, fold compared to Mock cells [9]	Binder
1 ratio to human chimeric IGF11-16	binds	binds							B1
			no binding (tested: 5 nM)	no binding (tested: 5 nM)	~2 fold	~2 fold	~2 fold	~2 fold	B2
			no binding (tested: 5 nM)	no binding (tested: 5 nM)	~2 fold	~2 fold	~2 fold	~2 fold	B3
